Laboratory results taken from the supplement of paper PMC9170038.

Key:
MS2 coat protein [1] = assay: apparent KD of MS2 coat protein; designed switch direction (-1 OFF switch, 1 ON switch): 1; higher = weaker reporter binding; settings: Eterna round: R98
Procedure: (§1)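 RNA-MaP: designed FMN/MS2 RNA switches (84 nt design region) are transcribed on-chip within common flanks and titrated with SNAP-549-labelled MS2 coat protein (about 1-3000 nM) in 100 mM Tris pH 7.5, 80 mM KCl, 4 mM MgCl2, without or with 200 uM FMN. Median apparent KD per design; activation ratio = KD,OFF / KD,ON.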

MS2 coat protein [2] = assay: apparent KD of MS2 coat protein; higher = weaker reporter binding; settings: Eterna round: R101
Procedure: as §1

| Sequence | apparent KD of MS2 coat protein (MS2 coat protein [1]; input ligand: FMN 200 uM) [nM] | apparent KD of MS2 coat protein (MS2 coat protein [1]; input ligand: none) [nM] | apparent KD of MS2 coat protein (MS2 coat protein [2]; input ligand: FMN 200 uM) [nM] | apparent KD of MS2 coat protein (MS2 coat protein [2]; input ligand: none) [nM] |
| --- | --- | --- | --- | --- |
| CCCUUUAGAAAAGGGACAUGAGGAUCACCCAUGUAGGCUGCACAGGAUAUCGAUCGGAGGCGGUACGAGAAGGGUGACGUCAUU [Zaarqu] | 64 | 52.3 | – | – |
| GGAUCCAUCACAGGAUAUGCUGGACUUUGUCCAGCAGAAGGGUGAAACAUGAGGAUCACCCAUGUAAAGGAUCCUAUAUUUAAU [Denovo 26] | 34.3 | 291 | – | – |
| GCUUGCGACGCAGGAUAUGGGUGCCUAAACACGAGGAUCACCCGUGUACAGGAAGCGAAAAGCUCUCAGAAGGGCGUCGCAGGC [United States 8 - Jieux - Same State NG 2] | 17.2 | 22.6 | – | – |
| GUAGCUAUCGCAGGAUAUCCUCAGGCGAAAGCCACAUGAGGAUCACCCAUGUAAUUAAAGAAAUUGGAGAAGGGCGAUAGCUAC [jl-sng2-2.38 Eli mod] | 36.4 | 571 | – | – |
| GUAGCUAUCGGAGGAUAUUCAUAGCGGAAACGCACAUGAGGAUCACCCAUGUGGCGAAAGCCUUGGGAGAAGGCCGAUAGCUAC [jl-sng2-2.30 Eli mod] | 17.7 | 99.3 | – | – |
| GCGGAGGGCACAGGAUAUCGUCCUUAGUUGGUACGAGAAGGGUGGCGCUGCCACAUGAGGAUCACCCAUGUGCCCAAACUAUAG [Eresgeises] | 639 | 211 | – | – |
| AAAACAUGAGGAUCACCCAUGUAUAGAUCGAUUAUUAGGAGUGAGGAUAUGCAAGUUAUAAGGAAGCAGAAGGCACAGGGAAAA [JR_SSNG3_Sub073] | 23.2 | 23.9 | – | – |
| ACAUACAUUCGAGGAUAUCGGUGAACAAAUUAACGAGAAGGCGAUAUAAUUUUUAAUCUUAUAAACAUGAGGAUCACCCAUGUA [JR_SSNG1_Sub001] | 17 | 20.9 | – | – |
| AAAACAUGAGGAUCACCCAUGUAUAGAACGGUUAAUAAAAGUGAGGAUAUACUAAAUUUUAUAUAGUAGAAGGCACUGGGUACU [JR_SSNG3_Sub010] | 24.7 | 17.1 | – | – |
| CUUACUUUGUAGAAGGGUGACAUGAGGAUCACCCAUGUGCGUCGCCUGAAAGACCAGGGUACGCCACAGGAUAUACAAAGUAAG [Titerexe] (puzzle (switch architecture): Inverted Same State NG 2) | – | – | 128 | 28.4 |
| AAAUGAUAUCAGAAGGCGUGGACGAAACGUCCACGAGGAUAUGAGGAUCACCCAUGUCAGGUCAGCCUGCAAAGCAGGCUGACC [#SharedSequence - IExNG1: 7-4] (puzzle (switch architecture): Inverted Exclusion NG 1) | – | – | 562 | 50.3 |
| UGUAAUAUUAUAGGAUAUGGAUACGAUACGUAUCCAGAAGGGUGAUUAAACUAUAAUCUAUACAUGAGGAUCACCCAUGUUUAU [AtrosYaY10] (puzzle (switch architecture): Same State NG 1) | – | – | 157 | 173 |
| GCAGCUAAUGCAGGAUAUCAGCACGUGUAGUGCUGAGAAGGGCACAUGAGGAUACUGACUGUGAUCAAUUAAUAUUAAUGCUGC [salish99#hingeEx3_55-58_004] (puzzle (switch architecture): Exclusion NG 1) | – | – | 9.19 | 63.5 |
| AGUGUCAUCGAGAAGGCCUCAAAAUGAGGAUCACCCAUGUUGUAAUAUGGGAGGAUAUCGAUGAUACAGCUACGUUUCGUAGCA [salish99_InSLSSNG1_020 #HINGE] (puzzle (switch architecture): Inverted Small Loop Same State NG 1) | – | – | 58.9 | 98.3 |
| AGGAGAAAUGUAGGAUAUAUAUAUAUAUAUAGGCAAAGCGUAUAUAUAUAUAUAGAAGGACAUGAGGAUCACCCAUGUUUCCCU [#Lowering the energy 12] (puzzle (switch architecture): Small Loop Exclusion NG 1) | – | – | 9.42 | 10.2 |
